Measurements taken from the supplement of paper PMC7877785.
± gives the uncertainty stated by the source.

Assay: self-splicing fitness, log relative to wild type (ln ratio); higher = more splicing; Tetrahymena group I intron in knt gene, E. coli kanamycin selection, DiMSum; sequences stand for … in CUCUCU…GGAGGGAAAAGUUAUCAGGCAUGCACCUGGUAGCUAGUCUUUAAACCAAUAGAUUGCAUCGGUUUAAAAGGCAAGACCGUCAAAUUGCGGGAAAGGGGUCAACAGCCGUUCAGUACCAAGUCUCAGGGGAAACUUUGAGAUGGCCUUGCAAAGGGUAUGGUAAUAAGCUGACGGACAUGGUCCUAACCACGCAGCCAAGUCCUAAGUCAACAGAUCUUCUGUUGAUAUGGAUGCAGUUCACAGACUAAAUGUCGGUCGGGGAAGAUGUAUUCUUCUCAUAAGAUAUAGUCGGACCUCUCCUUAAUGGGAGCUAGCGGAUGAAGUGAUGCAACACUGGAGCCGCUGGGAACUAAUUUGUAUGCGAAAGUAUAUUGAUUAGUUUUGGAGUACUCGUGGUCG
Summary of the method: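 DiMSum derived fitness as the error-weighted combination of fold changes across replicates, kanamycin versus no kanamycin, normalised to wild type. E. coli BL21(DE3) held the library, which randomised all eight P1ex-region intron nucleotides within the knt kanamycin-resistance gene on pET-22b(+). Six replicate transformations grew overnight at 37°C or 30°C on LB agar with or without 25 μg/mL kanamycin, also containing 100 μg/mL carbenicillin, 50 μM IPTG and 0.2% rhamnose, and pooled colonies were amplicon-sequenced on an Illumina HiSeq 2500.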

GGAAAGCAAUAUUACGGCGA
self-splicing fitness (ln) (30 °C): -0.475 ± 0.1 | self-splicing fitness (ln) (37 °C): -0.211 ± 0.089

GGAAAGCAAUAUUACGUAAA
self-splicing fitness (ln) (30 °C): -1.94 ± 0.1 | self-splicing fitness (ln) (37 °C): -0.563 ± 0.11

GGAAAGCAAUAUUACGUAAC
self-splicing fitness (ln) (30 °C): -1.42 ± 0.12 | self-splicing fitness (ln) (37 °C): -1.42 ± 0.16

GGAAAGCAAUAUUACGUACC
self-splicing fitness (ln) (30 °C): -2.13 ± 0.46 | self-splicing fitness (ln) (37 °C): -2.35 ± 0.49

GGAAAGCAAUAUUACGUCGG
self-splicing fitness (ln) (30 °C): -3.51 ± 0.36

GGAAAGCAAUAUUACGUGUU
self-splicing fitness (ln) (30 °C): -2.76 ± 0.11 | self-splicing fitness (ln) (37 °C): -1.66 ± 0.12

GGAAAGCAAUAUUACGUUGC
self-splicing fitness (ln) (30 °C): -4.27 ± 0.35 | self-splicing fitness (ln) (37 °C): -2.2 ± 0.26

GGAAAGCAAUAUUACGUUGG
self-splicing fitness (ln) (30 °C): -3.55 ± 0.2 | self-splicing fitness (ln) (37 °C): -2.83 ± 0.34

GGACAGCAAUAUUACGAACA
self-splicing fitness (ln) (30 °C): -0.522 ± 0.18 | self-splicing fitness (ln) (37 °C): -0.703 ± 0.18

GGACAGCAAUAUUACGAACG
self-splicing fitness (ln) (30 °C): -0.686 ± 0.08 | self-splicing fitness (ln) (37 °C): -0.333 ± 0.1

GGACAGCAAUAUUACGAAGA
self-splicing fitness (ln) (30 °C): -2.27 ± 0.22 | self-splicing fitness (ln) (37 °C): -0.517 ± 0.19

GGACAGCAAUAUUACGAGCU
self-splicing fitness (ln) (30 °C): -1.01 ± 0.18 | self-splicing fitness (ln) (37 °C): 0.191 ± 0.19

GGACAGCAAUAUUACGAGGA
self-splicing fitness (ln) (30 °C): -2.32 ± 0.2 | self-splicing fitness (ln) (37 °C): -1.85 ± 0.16

GGACAGCAAUAUUACGAUAG
self-splicing fitness (ln) (30 °C): -3.66 ± 0.25 | self-splicing fitness (ln) (37 °C): -2.13 ± 0.23

GGACAGCAAUAUUACGCAAA
self-splicing fitness (ln) (30 °C): -1.19 ± 0.13 | self-splicing fitness (ln) (37 °C): -0.67 ± 0.12

GGACAGCAAUAUUACGCAGA
self-splicing fitness (ln) (30 °C): -0.851 ± 0.16 | self-splicing fitness (ln) (37 °C): -0.643 ± 0.15

GGACAGCAAUAUUACGCGAG
self-splicing fitness (ln) (30 °C): -1.24 ± 0.058 | self-splicing fitness (ln) (37 °C): -0.0238 ± 0.063

GGACAGCAAUAUUACGCGGC
self-splicing fitness (ln) (30 °C): -3.12 ± 0.22 | self-splicing fitness (ln) (37 °C): -2.76 ± 0.34

GGACAGCAAUAUUACGCGGG
self-splicing fitness (ln) (30 °C): -2.52 ± 0.1 | self-splicing fitness (ln) (37 °C): -0.903 ± 0.091

GGACAGCAAUAUUACGCGUA
self-splicing fitness (ln) (30 °C): -0.744 ± 0.065 | self-splicing fitness (ln) (37 °C): -0.68 ± 0.073

GGACAGCAAUAUUACGGCUA
self-splicing fitness (ln) (30 °C): -0.452 ± 0.13 | self-splicing fitness (ln) (37 °C): -0.278 ± 0.12

GGACAGCAAUAUUACGGUAU
self-splicing fitness (ln) (30 °C): -0.41 ± 0.066 | self-splicing fitness (ln) (37 °C): -0.343 ± 0.09

GGACAGCAAUAUUACGUACC
self-splicing fitness (ln) (30 °C): -1.81 ± 0.32

GGACAGCAAUAUUACGUCAG
self-splicing fitness (ln) (30 °C): -0.431 ± 0.068 | self-splicing fitness (ln) (37 °C): -0.434 ± 0.084

GGACAGCAAUAUUACGUGAU
self-splicing fitness (ln) (30 °C): -0.212 ± 0.061 | self-splicing fitness (ln) (37 °C): -0.0525 ± 0.078

GGACAGCAAUAUUACGUGCU
self-splicing fitness (ln) (30 °C): -0.778 ± 0.11 | self-splicing fitness (ln) (37 °C): -0.685 ± 0.13

GGACAGCAAUAUUACGUUAC
self-splicing fitness (ln) (30 °C): -2.86 ± 0.2 | self-splicing fitness (ln) (37 °C): -2.49 ± 0.26

GGACAGCAAUAUUACGUUCU
self-splicing fitness (ln) (30 °C): -2.91 ± 0.12 | self-splicing fitness (ln) (37 °C): -2.45 ± 0.18

GGACAGCAAUAUUACGUUUU
self-splicing fitness (ln) (30 °C): -1.06 ± 0.061 | self-splicing fitness (ln) (37 °C): -0.21 ± 0.073

GGAGAGCAAUAUUACGAACA
self-splicing fitness (ln) (37 °C): -1.93 ± 0.22

GGAGAGCAAUAUUACGAAGA
self-splicing fitness (ln) (30 °C): -3.05 ± 0.44 | self-splicing fitness (ln) (37 °C): -1.59 ± 0.39

GGAGAGCAAUAUUACGAAGC
self-splicing fitness (ln) (30 °C): -3.17 ± 0.37

GGAGAGCAAUAUUACGACAU
self-splicing fitness (ln) (30 °C): -2.642 ± 0.022 | self-splicing fitness (ln) (37 °C): -1.55 ± 0.037

GGAGAGCAAUAUUACGACGA
self-splicing fitness (ln) (30 °C): -2.34 ± 0.21 | self-splicing fitness (ln) (37 °C): -2.08 ± 0.3

GGAGAGCAAUAUUACGACUU
self-splicing fitness (ln) (30 °C): -2.58 ± 0.19 | self-splicing fitness (ln) (37 °C): -0.744 ± 0.16

GGAGAGCAAUAUUACGAUGA
self-splicing fitness (ln) (30 °C): -2.47 ± 0.49

GGAGAGCAAUAUUACGCCAA
self-splicing fitness (ln) (30 °C): -2.04 ± 0.24

GGAGAGCAAUAUUACGCCCU
self-splicing fitness (ln) (30 °C): -2.57 ± 0.42

GGAGAGCAAUAUUACGGCCU
self-splicing fitness (ln) (30 °C): -2.34 ± 0.29 | self-splicing fitness (ln) (37 °C): -1.19 ± 0.43

GGAGAGCAAUAUUACGGCGU
self-splicing fitness (ln) (30 °C): -1.58 ± 0.2 | self-splicing fitness (ln) (37 °C): -1.17 ± 0.26

GGAGAGCAAUAUUACGGCUC
self-splicing fitness (ln) (30 °C): -1.76 ± 0.2 | self-splicing fitness (ln) (37 °C): -2.82 ± 0.34

GGAGAGCAAUAUUACGGGCC
self-splicing fitness (ln) (30 °C): -2.35 ± 0.33

GGAGAGCAAUAUUACGGUAU
self-splicing fitness (ln) (37 °C): -2.2 ± 0.34

GGAGAGCAAUAUUACGGUUA
self-splicing fitness (ln) (30 °C): -3.19 ± 0.38

GGAGAGCAAUAUUACGUAGA
self-splicing fitness (ln) (30 °C): -4.01 ± 0.2 | self-splicing fitness (ln) (37 °C): -2.05 ± 0.15

GGAGAGCAAUAUUACGUAUC
self-splicing fitness (ln) (30 °C): -2.61 ± 0.34 | self-splicing fitness (ln) (37 °C): -0.193 ± 0.23

GGAGAGCAAUAUUACGUAUU
self-splicing fitness (ln) (30 °C): -4.02 ± 0.31 | self-splicing fitness (ln) (37 °C): -1.22 ± 0.16

GGAGAGCAAUAUUACGUGUU
self-splicing fitness (ln) (30 °C): -4.51 ± 0.37 | self-splicing fitness (ln) (37 °C): -1.64 ± 0.31

GGAGAGCAAUAUUACGUUCA
self-splicing fitness (ln) (30 °C): -1.39 ± 0.17 | self-splicing fitness (ln) (37 °C): -0.277 ± 0.21

GGAGAGCAAUAUUACGUUGA
self-splicing fitness (ln) (37 °C): -1.97 ± 0.42

GGAUAGCAAUAUUACGACGU
self-splicing fitness (ln) (30 °C): -0.152 ± 0.28 | self-splicing fitness (ln) (37 °C): -0.257 ± 0.24

GGAUAGCAAUAUUACGAGAU
self-splicing fitness (ln) (30 °C): -3.46 ± 0.32 | self-splicing fitness (ln) (37 °C): 0.361 ± 0.15
